In US20240301385, “DNA MODIFYING ENZYMES AND ACTIVE FRAGMENTS AND VARIANTS THEREOF AND METHODS OF USE” (LIFEEDIT THERAPEUTICS, INC., published 2024):

Target: T1, nAPG07433.1-APG09980 (synthetic)
T1 chain: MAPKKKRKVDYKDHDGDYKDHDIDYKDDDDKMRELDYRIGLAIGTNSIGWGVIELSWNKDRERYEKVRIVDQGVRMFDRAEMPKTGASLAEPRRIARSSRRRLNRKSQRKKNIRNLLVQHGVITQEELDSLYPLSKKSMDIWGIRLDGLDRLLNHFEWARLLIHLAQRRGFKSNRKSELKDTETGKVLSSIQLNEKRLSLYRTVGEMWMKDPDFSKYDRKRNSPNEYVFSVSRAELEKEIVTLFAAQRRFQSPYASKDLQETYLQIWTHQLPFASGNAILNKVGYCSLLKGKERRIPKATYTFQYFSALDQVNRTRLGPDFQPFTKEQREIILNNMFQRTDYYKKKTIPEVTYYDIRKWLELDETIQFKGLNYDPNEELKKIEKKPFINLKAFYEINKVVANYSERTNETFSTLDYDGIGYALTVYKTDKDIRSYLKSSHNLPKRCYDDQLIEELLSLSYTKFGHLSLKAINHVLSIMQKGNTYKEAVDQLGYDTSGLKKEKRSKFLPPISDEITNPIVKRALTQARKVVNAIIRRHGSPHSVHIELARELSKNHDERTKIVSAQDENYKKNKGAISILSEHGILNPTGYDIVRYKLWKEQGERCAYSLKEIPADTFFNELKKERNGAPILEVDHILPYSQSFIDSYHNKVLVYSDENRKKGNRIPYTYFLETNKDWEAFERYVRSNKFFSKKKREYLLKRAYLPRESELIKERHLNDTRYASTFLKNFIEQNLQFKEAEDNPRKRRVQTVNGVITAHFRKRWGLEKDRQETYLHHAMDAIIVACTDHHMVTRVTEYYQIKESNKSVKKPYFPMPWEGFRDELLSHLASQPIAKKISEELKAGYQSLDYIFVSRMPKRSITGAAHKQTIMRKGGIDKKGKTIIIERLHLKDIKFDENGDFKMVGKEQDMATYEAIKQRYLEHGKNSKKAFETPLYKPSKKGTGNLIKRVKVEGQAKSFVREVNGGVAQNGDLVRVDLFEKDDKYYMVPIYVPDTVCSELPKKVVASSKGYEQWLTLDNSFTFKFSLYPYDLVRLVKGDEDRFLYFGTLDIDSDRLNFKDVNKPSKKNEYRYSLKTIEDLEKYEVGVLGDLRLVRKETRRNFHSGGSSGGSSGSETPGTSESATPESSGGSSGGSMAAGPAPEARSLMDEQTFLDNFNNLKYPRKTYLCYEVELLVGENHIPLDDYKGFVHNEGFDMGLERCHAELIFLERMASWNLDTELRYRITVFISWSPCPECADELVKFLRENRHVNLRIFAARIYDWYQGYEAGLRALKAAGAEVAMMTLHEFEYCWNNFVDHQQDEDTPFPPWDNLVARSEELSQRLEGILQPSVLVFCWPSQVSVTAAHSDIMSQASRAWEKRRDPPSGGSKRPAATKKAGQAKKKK
Experiment: cell_activity; HEK293FT; C>G predominant; PAM SEQ 152
Conditions: tags: SV40 NLS, 3xFLAG N-term; nucleoplasmin NLS C-term

B1: SGN000930 sgRNA ; SGN000930 target (ssRNA ; dsDNA)
RNA: GAACAACUCAAAUGGAAAUGAAUAUGUCAUAGUUCCAUGAAAGCCAAAAGUGGCUUUGAUGUUUCUAUGAUAAGGGUUUCGGCCCGUGGCGUCGGGGAUCGCCUGCCCAUUCCGAUGGGCUUCUCCCCAUUUAUU
DNA 1: GAACAACTCAAATGGAAATGAATAT
DNA 2: ATATTCATTTCCATTTGAGTTGTTC
For B1, the activity was 18.4 % mutated reads.
